B2: Bcp1-His6 (natural protein, S. cerevisiae, UniProt Q06338 1-283, looked up)
chain: MVQAIKLNDLKNRKRKNVEEENGSDESEIDISSTDSENEEEQNGEEEIVNIDFDFFGGNPEVDFHALKNLLRQLFGPQESTRIQLSSLADLILGSPTTTIKTDGKESDPYCFLSFVDFKANHLSDYVKYLQKVDMRLSTFFKTMIDSGNKNCALVLSERLINMPPEVVPPLYKITLEDVATALGDDKHYDFYIIVTRKYEVNFDTDDDTDSGKRNKNKDERSKKRVKADEVDYFHEEDRFFEKYAKIHFESEAKKGVISSYMILDHEGLVKSIDELETEISTW
notes: Bcp1, S. cerevisiae; also called full-length Bcp1; recombinant Bcp1

Tests used:
Conditions in all cases: both partners purified
[1] = biological target: T1, GST-Kap123 (S. cerevisiae, UniProt P40069 1-1113); assay: pull-down; GST-Kap121 or GST-Kap123 on glutathione beads, incubated with recombinant proteins at 4°C for 1 h, three washes; Coomassie staining and western blotting
T1 construct: importin Kap123, S. cerevisiae; also called karyopherin; importin; source: recombinant, purified on glutathione beads; not shown: GST, N-terminal, kept
T1 sequence (looked up): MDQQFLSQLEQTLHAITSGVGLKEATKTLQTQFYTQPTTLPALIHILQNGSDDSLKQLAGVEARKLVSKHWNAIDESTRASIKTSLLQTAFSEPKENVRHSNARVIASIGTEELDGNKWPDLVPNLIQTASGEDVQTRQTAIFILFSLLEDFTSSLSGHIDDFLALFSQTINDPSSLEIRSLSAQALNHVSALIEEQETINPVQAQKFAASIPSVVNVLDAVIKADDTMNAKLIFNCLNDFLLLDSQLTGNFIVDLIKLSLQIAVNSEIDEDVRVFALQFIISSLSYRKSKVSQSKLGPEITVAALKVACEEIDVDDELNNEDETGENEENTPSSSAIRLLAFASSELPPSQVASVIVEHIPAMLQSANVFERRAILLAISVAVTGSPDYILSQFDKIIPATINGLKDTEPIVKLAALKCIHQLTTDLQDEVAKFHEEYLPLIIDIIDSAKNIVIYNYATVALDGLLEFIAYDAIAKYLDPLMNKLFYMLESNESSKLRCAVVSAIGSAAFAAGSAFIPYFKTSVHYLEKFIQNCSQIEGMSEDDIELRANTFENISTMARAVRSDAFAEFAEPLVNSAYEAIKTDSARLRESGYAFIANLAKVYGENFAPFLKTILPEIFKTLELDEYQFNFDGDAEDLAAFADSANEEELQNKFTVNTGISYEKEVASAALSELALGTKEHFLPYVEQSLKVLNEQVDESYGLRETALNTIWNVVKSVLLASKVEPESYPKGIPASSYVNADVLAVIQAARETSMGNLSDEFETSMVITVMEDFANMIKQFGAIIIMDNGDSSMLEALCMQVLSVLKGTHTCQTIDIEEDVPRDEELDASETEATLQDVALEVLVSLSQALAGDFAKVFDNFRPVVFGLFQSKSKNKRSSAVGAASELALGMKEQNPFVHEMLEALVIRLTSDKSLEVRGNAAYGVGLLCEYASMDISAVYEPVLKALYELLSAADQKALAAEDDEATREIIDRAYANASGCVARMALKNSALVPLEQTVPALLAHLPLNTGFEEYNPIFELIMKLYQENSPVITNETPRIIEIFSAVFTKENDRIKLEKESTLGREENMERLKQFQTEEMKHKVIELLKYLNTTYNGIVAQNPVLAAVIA

[2] = biological target: T2, GST-Kap121 (S. cerevisiae, UniProt P32337 1-1089); assay: as above
T2 construct: importin Kap121 (Pse1), S. cerevisiae; also called karyopherin; importin; source: recombinant, purified on glutathione beads; not shown: GST, N-terminal, kept
T2 sequence (looked up): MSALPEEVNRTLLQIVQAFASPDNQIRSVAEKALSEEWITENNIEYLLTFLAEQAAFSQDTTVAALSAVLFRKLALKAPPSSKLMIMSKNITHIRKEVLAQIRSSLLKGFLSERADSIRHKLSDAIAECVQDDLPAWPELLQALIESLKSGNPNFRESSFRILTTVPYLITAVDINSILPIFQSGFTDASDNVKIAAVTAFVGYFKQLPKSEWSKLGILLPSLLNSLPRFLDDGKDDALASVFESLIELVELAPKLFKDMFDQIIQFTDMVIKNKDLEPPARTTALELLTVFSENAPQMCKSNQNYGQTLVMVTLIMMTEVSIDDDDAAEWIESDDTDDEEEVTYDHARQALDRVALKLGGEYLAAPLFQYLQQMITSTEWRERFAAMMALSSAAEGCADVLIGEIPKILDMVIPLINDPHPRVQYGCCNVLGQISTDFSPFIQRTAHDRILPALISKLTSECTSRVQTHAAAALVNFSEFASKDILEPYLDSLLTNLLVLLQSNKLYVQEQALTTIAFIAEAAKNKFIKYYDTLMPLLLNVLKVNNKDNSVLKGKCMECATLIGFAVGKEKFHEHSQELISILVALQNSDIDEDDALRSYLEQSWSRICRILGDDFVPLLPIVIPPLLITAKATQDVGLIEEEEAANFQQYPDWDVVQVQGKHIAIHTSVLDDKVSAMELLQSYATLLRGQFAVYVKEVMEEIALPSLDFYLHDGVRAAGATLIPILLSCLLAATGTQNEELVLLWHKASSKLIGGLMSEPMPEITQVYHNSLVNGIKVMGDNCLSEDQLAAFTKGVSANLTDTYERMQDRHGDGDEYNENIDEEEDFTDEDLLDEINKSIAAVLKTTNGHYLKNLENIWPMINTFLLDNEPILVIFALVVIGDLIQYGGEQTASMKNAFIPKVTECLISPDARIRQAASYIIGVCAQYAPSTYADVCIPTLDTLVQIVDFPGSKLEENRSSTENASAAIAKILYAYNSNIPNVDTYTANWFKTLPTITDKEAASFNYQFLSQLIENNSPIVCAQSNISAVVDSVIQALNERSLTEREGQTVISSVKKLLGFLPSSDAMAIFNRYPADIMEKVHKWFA

[3] = biological target: T3, GST-Rkm1/uL14 complex (S. cerevisiae, UniProt Q08961 1-583; P0CX41 1-137); assay: pull-down; purified Bcp1 or bcp1∆N20 added to the GST-Rkm1/uL14 complex immobilised on glutathione beads, with or without 0.5 mM SAM, 30°C, 80 min; beads and supernatants analysed
T3 construct: Rkm1, S. cerevisiae; as the chain of m12; uL14 (Rpl23), S. cerevisiae; as the chain of m2; also called Rkm1/uL14 complex on glutathione beads; source: recombinant, purified with glutathione beads
T3 sequence (P0CX41 whole entry, one chain of several): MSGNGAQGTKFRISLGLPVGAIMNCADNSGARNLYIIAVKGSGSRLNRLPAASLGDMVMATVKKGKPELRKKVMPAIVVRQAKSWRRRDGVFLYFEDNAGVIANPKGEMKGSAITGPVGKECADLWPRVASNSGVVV

[4] = biological target: T4, Rkm1-His6 (S. cerevisiae, UniProt Q08961 1-583); assay: SEC; HiLoad 16/600 Superdex 200; Bcp1, uL14 and Rkm1 mixed; ratio from band intensity in SDS-PAGE and molecular weight estimated from SEC
T4 construct: Rkm1, ribosomal lysine methyltransferase with SET domain, S. cerevisiae; also called recombinant Rkm1; source: E. coli BL21(DE3), purified (Ni-NTA, Superdex 200)
T4 sequence (looked up): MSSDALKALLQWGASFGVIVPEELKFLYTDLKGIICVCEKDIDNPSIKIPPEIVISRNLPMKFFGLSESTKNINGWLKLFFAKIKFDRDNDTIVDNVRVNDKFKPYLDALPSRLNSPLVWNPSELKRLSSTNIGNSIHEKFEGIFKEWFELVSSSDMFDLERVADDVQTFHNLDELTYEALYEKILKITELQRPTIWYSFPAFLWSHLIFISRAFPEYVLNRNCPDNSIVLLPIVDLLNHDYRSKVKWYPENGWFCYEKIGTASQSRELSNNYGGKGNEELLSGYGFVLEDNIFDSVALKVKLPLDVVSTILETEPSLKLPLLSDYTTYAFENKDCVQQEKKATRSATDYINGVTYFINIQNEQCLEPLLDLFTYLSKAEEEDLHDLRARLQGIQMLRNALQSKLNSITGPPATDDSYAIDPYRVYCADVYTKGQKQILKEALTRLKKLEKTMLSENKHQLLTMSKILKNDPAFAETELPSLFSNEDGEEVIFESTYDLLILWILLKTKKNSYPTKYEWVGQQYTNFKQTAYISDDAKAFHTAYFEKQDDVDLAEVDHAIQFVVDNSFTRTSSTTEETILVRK

[5] = biological target: B2; assay: as above
[6] = biological target: T2, GST-Kap121; assay: pull-down; release test: GST-Kap in complex with cargo immobilised on glutathione beads, purified Bcp1 or bcp1ΔN added for another hour at 4°C; what is left on the beads or in the supernatant by western blotting
[7] = biological target: B2; assay: pull-down; Bcp1-His6 in the supernatants of the methylation reactions (Fig. 6 A, lanes 7 and 8) purified on Ni-NTA beads; bound uL14 and its methylation by western blotting

B1: Rkm1/uL14 complex (complex)
chain 1: MSSDALKALLQWGASFGVIVPEELKFLYTDLKGIICVCEKDIDNPSIKIPPEIVISRNLPMKFFGLSESTKNINGWLKLFFAKIKFDRDNDTIVDNVRVNDKFKPYLDALPSRLNSPLVWNPSELKRLSSTNIGNSIHEKFEGIFKEWFELVSSSDMFDLERVADDVQTFHNLDELTYEALYEKILKITELQRPTIWYSFPAFLWSHLIFISRAFPEYVLNRNCPDNSIVLLPIVDLLNHDYRSKVKWYPENGWFCYEKIGTASQSRELSNNYGGKGNEELLSGYGFVLEDNIFDSVALKVKLPLDVVSTILETEPSLKLPLLSDYTTYAFENKDCVQQEKKATRSATDYINGVTYFINIQNEQCLEPLLDLFTYLSKAEEEDLHDLRARLQGIQMLRNALQSKLNSITGPPATDDSYAIDPYRVYCADVYTKGQKQILKEALTRLKKLEKTMLSENKHQLLTMSKILKNDPAFAETELPSLFSNEDGEEVIFESTYDLLILWILLKTKKNSYPTKYEWVGQQYTNFKQTAYISDDAKAFHTAYFEKQDDVDLAEVDHAIQFVVDNSFTRTSSTTEETILVRK
chain 2: not shown
notes: Rkm1, S. cerevisiae; uL14 (Rpl23), S. cerevisiae; as the chain of m2; also called uL14/Rkm1 complex; source: E. coli, recombinant, purified
B1: binds [1]; binds [2].

B2: binds [3]; binds [2].

B3: uL14 (recombinant) (natural protein)
chain: not shown
notes: ribosomal protein uL14 (Rpl23), S. cerevisiae, encoded by RPL23A and RPL23B; No tag is named for recombinant uL14; for the Bcp1/uL14 complex its bacterial pellet was lysed together with that of Bcp1-His6; also called Rpl23; source: E. coli BL21(DE3), purified
B3 was tested, and the “stoichiometry N” value [4] was about 1, the “stoichiometry N” value [5] was about 1 and the binding result [6] was “binds”. B3: binds [1].

B4: methylated uL14 (natural protein)
chain: not shown
modifications: methylated at K106 and K110
notes: uL14 (Rpl23), S. cerevisiae; Methylation stoichiometry of K106 and K110 ~98.6% by AspN digestion; also called uL14 methylated in vitro by Rkm1 with SAM; source: recombinant uL14 methylated on GST-Rkm1 beads with 0.5 mM SAM, 30°C, 80 min
B4: binds [7].

B5: bcp1ΔN20 (domain or fragment, S. cerevisiae, UniProt Q06338 21-283, looked up)
chain: ENGSDESEIDISSTDSENEEEQNGEEEIVNIDFDFFGGNPEVDFHALKNLLRQLFGPQESTRIQLSSLADLILGSPTTTIKTDGKESDPYCFLSFVDFKANHLSDYVKYLQKVDMRLSTFFKTMIDSGNKNCALVLSERLINMPPEVVPPLYKITLEDVATALGDDKHYDFYIIVTRKYEVNFDTDDDTDSGKRNKNKDERSKKRVKADEVDYFHEEDRFFEKYAKIHFESEAKKGVISSYMILDHEGLVKSIDELETEISTW
notes: Bcp1, S. cerevisiae, truncated by 20 amino acids from the N terminus; also called bcp1(∆N20); Bcp1(∆N20); source: E. coli, purified
B5: binds [3].

B6: bcp1ΔN10 (domain or fragment, S. cerevisiae, UniProt Q06338 11-283, looked up)
chain: KNRKRKNVEEENGSDESEIDISSTDSENEEEQNGEEEIVNIDFDFFGGNPEVDFHALKNLLRQLFGPQESTRIQLSSLADLILGSPTTTIKTDGKESDPYCFLSFVDFKANHLSDYVKYLQKVDMRLSTFFKTMIDSGNKNCALVLSERLINMPPEVVPPLYKITLEDVATALGDDKHYDFYIIVTRKYEVNFDTDDDTDSGKRNKNKDERSKKRVKADEVDYFHEEDRFFEKYAKIHFESEAKKGVISSYMILDHEGLVKSIDELETEISTW
notes: Bcp1, S. cerevisiae, truncated by 10 amino acids from the N terminus; also called bcp1(∆N10); bcp1∆N10; source: E. coli, purified
B6: binds [2].
